B1: Bcl2.906: shRNA, SEQ ID NO: 98 (nucleic acid)
chain: TGCTGTTGACAGTGAGCGCGCACAGGAATTTTGTTTAATATAGTGAAGCCACAGATGTATATTAAACAAAATTCCTGTGCATGCCTACTGCCTCGGA
B2: Lin28.2180: neutral control shRNA, SEQ ID NO: 198 (nucleic acid)
chain: TGCTGTTGACAGTGAGCGCAGCGTGATGGTTGATAGCTAATAGTGAAGCCACAGATGTATTAGCTATCAACCATCACGCTATGCCTACTGCCTCGGA
B3: Pcna.566: shRNA, SEQ ID NO: 160 (nucleic acid)
chain: TGCTGTTGACAGTGAGCGATCGGGTGAATTTGCACGTATATAGTGAAGCCACAGATGTATATACGTGCAAATTCACCCGACTGCCTACTGCCTCGGA
B4: Mn1.1403: neutral control shRNA, SEQ ID NO: 205 (nucleic acid)
chain: TGCTGTTGACAGTGAGCGCAACGGTACCCTAGACAACCAATAGTGAAGCCACAGATGTATTGGTTGTCTAGGGTACCGTTATGCCTACTGCCTCGGA
B5: Kit.221: neutral control shRNA, SEQ ID NO: 196 (nucleic acid)
chain: TGCTGTTGACAGTGAGCGCCAGATGGACTTTCAAGACCTATAGTGAAGCCACAGATGTATAGGTCTTGAAAGTCCATCTGATGCCTACTGCCTCGGA
B6: Luciferase.1309: neutral control shRNA, SEQ ID NO: 202 (nucleic acid)
chain: TGCTGTTGACAGTGAGCGCCCGCCTGAAGTCTCTGATTAATAGTGAAGCCACAGATGTATTAATCAGAGACTTCAGGCGGTTGCCTACTGCCTCGGA
B7: Lin28.2270: neutral control shRNA, SEQ ID NO: 200 (nucleic acid)
chain: TGCTGTTGACAGTGAGCGCAACGGGACAAATGCAATAGAATAGTGAAGCCACAGATGTATTCTATTGCATTTGTCCCGTTTTGCCTACTGCCTCGGA
B8: Myc.1888: shRNA, SEQ ID NO: 146 (nucleic acid)
chain: TGCTGTTGACAGTGAGCGAGAAACGACGAGAACAGTTGAATAGTGAAGCCACAGATGTATTCAACTGTTCTCGTCGTTTCCTGCCTACTGCCTCGGA
B9: Rpa1.1620: shRNA, SEQ ID NO: 175 (also SEQ ID NO: 57) (nucleic acid)
chain: TGCTGTTGACAGTGAGCGCCCGCATGATCTTATCGGCAAATAGTGAAGCCACAGATGTATTTGCCGATAAGATCATGCGGTTGCCTACTGCCTCGGA
B10: Map2k1.2337: neutral control shRNA, SEQ ID NO: 204 (nucleic acid)
chain: TGCTGTTGACAGTGAGCGCCAAGATGTTTATCAAATCTAATAGTGAAGCCACAGATGTATTAGATTTGATAAACATCTTGATGCCTACTGCCTCGGA
B11: Lin28.2186: neutral control shRNA, SEQ ID NO: 199 (nucleic acid)
chain: TGCTGTTGACAGTGAGCGAATGGTTGATAGCTAAAGGAAATAGTGAAGCCACAGATGTATTTCCTTTAGCTATCAACCATCTGCCTACTGCCTCGGA
B12: Bcl2.2169: shRNA, SEQ ID NO: 96 (also SEQ ID NO: 42) (nucleic acid)
chain: TGCTGTTGACAGTGAGCGACAGTAGAAATTATATGCATTATAGTGAAGCCACAGATGTATAATGCATATAATTTCTACTGCTGCCTACTGCCTCGGA
B13: Myc.1891: shRNA, SEQ ID NO: 147 (nucleic acid)
chain: TGCTGTTGACAGTGAGCGCACGACGAGAACAGTTGAAACATAGTGAAGCCACAGATGTATGTTTCAACTGTTCTCGTCGTTTGCCTACTGCCTCGGA
B14: Pcna.1186: shRNA, SEQ ID NO: 159 (nucleic acid)
chain: TGCTGTTGACAGTGAGCGAATCAATGATCTTGACGCTAAATAGTGAAGCCACAGATGTATTTAGCGTCAAGATCATTGATGTGCCTACTGCCTCGGA
B15: Mcl1.1334: shRNA, SEQ ID NO: 139 (also SEQ ID NO: 43) (nucleic acid)
chain: TGCTGTTGACAGTGAGCGAAAGAGTCACTGTCTGAATGAATAGTGAAGCCACAGATGTATTCATTCAGACAGTGACTCTTCTGCCTACTGCCTCGGA
B16: Rpa3.561: shRNA, SEQ ID NO: 176 (also SEQ ID NO: 61) (nucleic acid)
chain: TGCTGTTGACAGTGAGCGCAAAAGTGATACTTCAATATATTAGTGAAGCCACAGATGTAATATATTGAAGTATCACTTTTATGCCTACTGCCTCGGA
B17: Lin28.2430: neutral control shRNA, SEQ ID NO: 201 (nucleic acid)
chain: TGCTGTTGACAGTGAGCGATGGCCTAGTTGTGTAAATATATAGTGAAGCCACAGATGTATATATTTACACAACTAGGCCACTGCCTACTGCCTCGGA
B18: Myc.2105: shRNA, SEQ ID NO: 148 (nucleic acid)
chain: TGCTGTTGACAGTGAGCGCCTGCCTCAAACTTAAATAGTATAGTGAAGCCACAGATGTATACTATTTAAGTTTGAGGCAGTTGCCTACTGCCTCGGA
B19: Myb.670: shRNA, SEQ ID NO: 145 (also SEQ ID NO: 54) (nucleic acid)
chain: TGCTGTTGACAGTGAGCGACACAACCATTTGAATCCAGAATAGTGAAGCCACAGATGTATTCTGGATTCAAATGGTTGTGCTGCCTACTGCCTCGGA
B20: Kit.4813: neutral control shRNA, SEQ ID NO: 197 (nucleic acid)
chain: TGCTGTTGACAGTGAGCGATTGGATATTCTTGAAAGTTTATAGTGAAGCCACAGATGTATAAACTTTCAAGAATATCCAAGTGCCTACTGCCTCGGA
B21: Bcl2.1422: shRNA, SEQ ID NO: 95 (also SEQ ID NO: 41) (nucleic acid)
chain: TGCTGTTGACAGTGAGCGACCGGGAGAACAGGGTATGATATAGTGAAGCCACAGATGTATATCATACCCTGTTCTCCCGGCTGCCTACTGCCTCGGA
B22: Kit.2021: neutral control shRNA, SEQ ID NO: 195 (nucleic acid)
chain: TGCTGTTGACAGTGAGCGACACCCTGGTCATTACAGAATATAGTGAAGCCACAGATGTATATTCTGTAATGACCAGGGTGGTGCCTACTGCCTCGGA
B23: Map2k1.1200: neutral control shRNA, SEQ ID NO: 203 (nucleic acid)
chain: TGCTGTTGACAGTGAGCGAGCCTCTCAGCTCATATGGAATTAGTGAAGCCACAGATGTAATTCCATATGAGCTGAGAGGCCTGCCTACTGCCTCGGA

The molecules below were run on tet-on competent MLL/AF9+Nras AML (assay: Pooled negative selection RNAi screening (deep sequencing)). Details: deep sequencing reads, On Dox compared to T0.
Format: cell-based, mouse
In short: (§1)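 A pool of 1230 tet-regulated shRNAs (TRMPV-type) was retrovirally transduced at mostly single copy and ~1000-fold representation into tet-on MLL/AF9+Nras AML cells or immortalized murine embryonic fibroblasts, then cultured on or off doxycycline. shRNA-expressing cells were FACS-sorted, and shRNA representation was quantified by PCR and deep sequencing of genomic DNA, with depletion on dox compared against t0 and off dox.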
B1 was tested, and the “Fold depletion in AML” value was 12.28 Fold.
B2 was tested, and the “Fold depletion in AML” value was 1.15 Fold.
B3 was tested, and the “Fold depletion in AML” value was 9.89 Fold.
In the case of B4, the “Fold depletion in AML” value is reported as 1.94 Fold.
B5 was tested, and the “Fold depletion in AML” value was 1.19 Fold.
B6 was tested, and the “Fold depletion in AML” value was 1.22 Fold.
In the case of B7, the “Fold depletion in AML” value is reported as 0.22 Fold.
In the case of B8, the “Fold depletion in AML” value is reported as 8.48 Fold.
B9 was tested, and the “Fold depletion in AML” value was 2,891.47 Fold.
In the case of B10, the “Fold depletion in AML” value is reported as 0.24 Fold.
For B11, the “Fold depletion in AML” value was 1.43 Fold.
With B12 the “Fold depletion in AML” value was 12.61 Fold.
With B13 the “Fold depletion in AML” value was 9.05 Fold.
In the case of B14, the “Fold depletion in AML” value is reported as 51.94 Fold.
In the case of B15, the “Fold depletion in AML” value is reported as 104.03 Fold.
With B16 the “Fold depletion in AML” value was 8.81 Fold.
In the case of B17, the “Fold depletion in AML” value is reported as 1.37 Fold.
With B18 the “Fold depletion in AML” value was 9.19 Fold.
With B19 the “Fold depletion in AML” value was 26.46 Fold.
In the case of B20, the “Fold depletion in AML” value is reported as 0.81 Fold.
With B21 the “Fold depletion in AML” value was 1,686.19 Fold.
For B22, the “Fold depletion in AML” value was 1.92 Fold.
In the case of B23, the “Fold depletion in AML” value is reported as 2.26 Fold.

Each molecule was assayed on immortalized murine embryonic fibroblasts (Mef) in the same assay as above. Details: deep sequencing reads, on dox compared to initial representation.
Format: cell-based
In short: as §1
With B1 the “Fold depletion in Mef” value was 0.98 Fold.
For B2, the “Fold depletion in Mef” value was 0.80 Fold.
B3 was tested, and the “Fold depletion in Mef” value was 6.15 Fold.
In the case of B4, the “Fold depletion in Mef” value is reported as 0.77 Fold.
In the case of B5, the “Fold depletion in Mef” value is reported as 0.69 Fold.
In the case of B6, the “Fold depletion in Mef” value is reported as 0.52 Fold.
For B7, the “Fold depletion in Mef” value was 1.10 Fold.
With B8 the “Fold depletion in Mef” value was 3.83 Fold.
B9 was tested, and the “Fold depletion in Mef” value was 10.23 Fold.
B10 was tested, and the “Fold depletion in Mef” value was 0.68 Fold.
In the case of B11, the “Fold depletion in Mef” value is reported as 1.55 Fold.
For B12, the “Fold depletion in Mef” value was 1.62 Fold.
B13 was tested, and the “Fold depletion in Mef” value was 4.62 Fold.
In the case of B14, the “Fold depletion in Mef” value is reported as 11.42 Fold.
In the case of B15, the “Fold depletion in Mef” value is reported as 3.00 Fold.
For B16, the “Fold depletion in Mef” value was 10.63 Fold.
B17 was tested, and the “Fold depletion in Mef” value was 0.89 Fold.
B18 was tested, and the “Fold depletion in Mef” value was 11.70 Fold.
With B19 the “Fold depletion in Mef” value was 1.28 Fold.
In the case of B20, the “Fold depletion in Mef” value is reported as 0.84 Fold.
B21 was tested, and the “Fold depletion in Mef” value was 2.71 Fold.
In the case of B22, the “Fold depletion in Mef” value is reported as 1.61 Fold.
With B23 the “Fold depletion in Mef” value was 1.24 Fold.

Source: US8895526B2, “Identification of RNAI targets and use of RNAI for rational therapy of chemotherapy-resistant leukemia and other cancers” (Cold Spring Harbor Laboratory, priority 2009, dated 2014)
